Here are results for 16 sequences from the nanobody polyreactivity screen of Harvey et al. (2022).

The nature of the data set: yeast display, Sf9 membrane polyspecificity reagent, FACS + sequencing; frameworks hold sequencing errors. The gist of the method:
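Genes from sorted yeast were amplified by colony PCR, read by MiSeq 2 × 250 sequencing and filtered on CDR length. These cells carried a synthetic nanobody library in Saccharomyces cerevisiae BJ5465 and were sorted by FACS into low and high (top ~1%) gates on anti-HA and streptavidin fluorescence. Polyreactivity is labelled according to the gate of origin.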
Consider “QVQLVESGGGLVQAGGSLRLSCAASGLTFYPNAMGWYRPAPGKEREFVASISISGRTYYADSVKGRFTISRDNAKNTVYLQMNSLKPEDTAVYYCAARYVRSGLYRKYDYWGQGTQVTVSS”, for which the “polyreactivity (PSR sort gate)” value is “high polyreactivity”.
“QVQLVESGGGLVQAGGSLRISCAASGLIFADYTMGWYRQAPGKERDLVAVITDGDSTYYADSVKGRFTISRDNAKNTVYLQMNSLKPEDTAVYYCAAELDGSNYTLDYWGQGTQVTVST”: the “polyreactivity (PSR sort gate)” value is recorded as “low polyreactivity”.
Regarding “QVQLVESGGGLVQAGGSLRLSCAASGRIFIYNVMGWYRQAPGKERELVATISTGGTTNYADSVKGRFTISRDNAKNTVYLQMNSLKPEDTAVYYCNRGSGYWYLPAVKYDHWGQGTQVTVSS”, the “polyreactivity (PSR sort gate)” value was “low polyreactivity”.
The same measure for “QVQLVESGGGLVQAGGSLRLSCAASGRTLHDYTMGWYRQEPGKERELVAGITSGGRTNYADSVKGRFTISRYNAKNTVYLQMNSLKPEDTAVYYCAAAWTWWRLYADDYWGQGTQVTVSS”: “high polyreactivity”; for “QVQLVESGGGLVQAGGSLRLSCAASGRIFDGYTMGWYRQAPGKERELVAAITYRSGRTYYADSVKGRFTISRDNAKNTVYLQMNSLKPEDTAVYYCNKVKRSFIVNTDDYCGQGTQVTVSS”: “high polyreactivity”; for “QVQLVESGGGLDQARGSLRLSCPASGFIFTDYAMGWYRQAPGKERELVAGISGSGGRTYYADSVKGRFTISRDNAKNTVYLQMNSLKPEDTAVYYCAARGVPWLWYFRGMYWGQGTQVTVSS”: “high polyreactivity”.
Consider “QVQLVESGGGLVQAGGSLRLSCAASGFIFTRYAMGWYRQAPGKERELVAVITSSGGTYYADSVKGRFTISRDNAKNSVYLQMNSLKPEDTAVYYCNADFYRVAYLRRYSHFDYWGQGTQVTVSS”, for which the “polyreactivity (PSR sort gate)” value is on record as “high polyreactivity”.
The entry for “QVQLVESGGGLVQAGGSLRLSCAASGRTFLINSMGWYRQAPGKERELVAGITRNGGTTYYADSVKGRFTISRDNAKNTVYLQMNSLKPEDTAVYYCAKRYPSWFNYWGQGTQVTVSS” is “high polyreactivity”; for “QVQLVESGGGLVQAGGSLRLSCAATVSTFWNYAMGWYRQAPGKERELVAAITRGSSTNYADSVKGRFRISRDNAKNTVYLQMNSLKPEVTAVYYCAKRVGRWSAFYYWGQGTQVTVSS” it is “high polyreactivity”; for “QVQLVESGGGLVQAGGSLRLSCAASGRTFWKYVMGWYRQAPGKEREVVAVISRPAGSTYYADSVKGRFTISRDNAKNTVYLQMNSLKPEETAVYYCNKPGGQSLGGYNYWVQGTQVTVSS” it is “low polyreactivity”.
The entry for “QVQLVESGGGLVQAGGSLRLSCAASGSIFPANAMGWYRQPPGKERELVAAISRRGGNTYYADSVKGRFTISRDNAKNTVYLQMNSLKPEDTAVYYCAAYYFYRRYDYWGQGTQVTVSS” is “high polyreactivity”; for “QVQLVESGGGLVQAGGSLRLSCAASGSTFYKNAMGWYRQAPGKERELVAAITRSGGSTYYADSVKGRFTISRDNAKNTVYLQMNSLKPEDTAVYYCAYYPYGYDYWGQGTQVTVSS” it is “high polyreactivity”.
Take “QVQLVESGGGLVQAGGSLRLSCAASGITFYGNAMGWYRQAPGKERELVANTYYADSVKGRFTISRDNAKNTVYLQMNSLKPEDTAVYYCATRNARYRSQPPGYDYWGQGTQVTVSS”: the “polyreactivity (PSR sort gate)” value is “low polyreactivity”.
For the sequence “QVQLVESGGGLVQAGGSLRLSCAASGSTFYWNALGWYRQAPGKERELVADIDGRGGSTYYADSVKGRFTISRDNAKNTVYLQMNSLKPEDTAVYYCAARAPFLSVPSELDYWGQGTQVTVSS”, the “polyreactivity (PSR sort gate)” value is reported as “low polyreactivity”.
For “QVQLVESGGGLVQAGGSLRLSCAASGSIFYPYAMGWYRQAPGKERELVAAINWGGTITYYADSVKGRFTISRDNAKNTVYLQMNSLKPEDTAVYYCAAKYKGYRYYYWGQGTQVTVSS”, the “polyreactivity (PSR sort gate)” value is given as “high polyreactivity”.
As for “QVQLVESGGGLVQAGGSLRLSCAASGITFTVNAMGWYRQAPGKERELVAAISNDGSTYYADSVKGRFTISRDNAKNTVYLQMNSLKPEDTAVYYCSADTWDDFGPYGYDYWGQGTQVTVSS”, the “polyreactivity (PSR sort gate)” value is on record as “low polyreactivity”.
